# Data reported in patent US10131920B2, “Nucleic acid molecules” (MEDIMMUNE LIMITED, priority 2013, dated 2018).
# Tests used:
# [1] = tested on: GFPY40 reporter (GFP containing an amber codon) in HEK293 cells stably expressing pylRS; experiment: Amber suppression-dependent GFP expression (GFPY40 reporter), transient transfection, flow cytometry; format: cell-based; settings: for GFP MFI, FIG. 8: 1 ug PCR product of each construct, lys azide nnAA; for GFP MFI, FIG. 8 / GFP MFI, FIG. 10: three days; for GFP MFI, FIG. 10: cells stably expressing WTpylRS, lys azide
# Protocol: (§1) To assess the function of the tRNA variants, an in vitro assay was established where cells are transiently transfected with a tRNA construct and a reporter construct encoding GFP containing an amber codon interrupting its reading frame (GFPY40). HEK293 cells stably expressing pylRS were transiently transfected with various tRNA constructs (1 ug) and the GFPY40 reporter (1 ug). In the absence of elements that support amber suppression, a truncated GFP protein is generated and the cell is not fluorescent. However, the introduction of a functional tRNA and the presence of a nnAA that supports amber suppression allows for the production of full length GFP resulting in fluorescent cells. The level of GFP expression reflects the efficiency of amber suppression and is quantified by flow cytometry. tRNA genes encoding wild type tRNApyl (WT tRNA), or containing mutations in the B-box (B tRNA—SEQ ID No 9), in both the A and B box (A2B tRNA—SEQ ID No 10), or in the A box (A1 tRNA-SEQ ID No 7; or A2 tRNA SEQ ID No 11), all under control of the H1 promoter were generated by site directed mutagenesis and assayed. The H1 promoter ensured that the variants were expressed and allowed us to examine the functional effects of the mutations introduced into the tRNA genes. In addition a sample transfected with GFPY40 alone was generated to establish background GFP levels. The transfected cells were grown in presence of the aminoacid analogue lys azide (2 mM) and incubated for 18 hours. GFP fluorescence was then assayed by flow cytometry and mean fluorescence intensity determined for each sample. Data were analysed with FCS Express and the mean fluorescence intensity of each sample determined using markers that constrain the data set to cells showing fluorescence above negative controls.
# To begin to assess whether the tRNA mutations can support expression of the tRNA we assayed tRNA constructs encoding the wild type tRNA in the absence of the H1 promoter. Constructs encoding wild type tRNApyl (WT tRNA) or containing mutations in the B-box (B tRNA—SEQ ID No 9) or in both the A and B box (A2B; A2B tRNA—SEQ ID No 10) were assayed using our in vitro amber suppression assay described above. WT tRNA under control of the H1 promoter (H1-tRNA) was used as a positive control, and in addition one sample was transfected only with the GFPY40 reporter to illustrate background amber suppression in the absence of tRNA. The transfected cells were exposed to 2 mM lys-azide nnAA and cells incubated for three days. GFP expression was examined by flow cytometry and mean fluorescence intensity determined.
# Two copies of the WT, B, or A2B tRNA were cloned in tandem to generate a single vector containing two copies of WT, B, or A2B tRNA. To assess the effect of increased gene doses by these constructs, cells expressing WTpylRS were transiently transfected with the tRNA constructs and the GFPY40 reporter construct and GFP expression assayed after two days.
# The activity of each construct was assessed by transient transfection into cells stably expressing WT pylRS with the GFPY40 reporter as described above. For this experiment, 1 ug of a PCR product encoding each of the indicated constructs was used. In each case, cells were exposed to the lys azide nnAA for three days and GFP levels assayed by flow cytometry. Mean fluorescence intensities were determined for each sample and plotted (FIG. 8).
# [2] = tested on: GFPY40 reporter in 3H7 cells; experiment: Amber suppression-dependent GFP expression (GFPY40 reporter), transient transfection of 3H7 cells, flow cytometry; format: cell-based; settings: 1 ug GFPY40 and 1 ug tRNA expression vector, lys-azide, three days
# Protocol: as §1, with “controls. […] The constructs thus are functional and may contain the necessary genetic sequence to enable the expression of the tRNA also in the absence of an upstream promoter element such as the H1 promoter.” for “controls.”
# Having established that the B mutation introduced into the pyltRNA sequence enabled expression of the tRNA that supported amber suppression we then asked whether this mutation affected the orthogonality of the tRNA and led to the incorporation of natural amino acids. To do this 3H7 cells were transiently transfected with expression constructs encoding WT-tRNA, B-tRNA, H1-tRNA and H1-B tRNA along with the GFPY40 reporter. Transfected cells were grown in the presence of 2 mM lys azide or absence of nnAA as indicated (FIG. 6), and GFP expression assessed by flow cytometry after three days. In addition, a sample transfected only with GFPY40 was examined to determine background amber suppression levels in the absence of tRNA. […] A comparison of GFP expression between the WT tRNA (MFI 33,781) and tRNA B (232,505) lacking extragenic promoter elements confirms that the B mutation generates a functional intragenic promoter. Indeed, the B tRNA construct enabled a seven-fold increase in the level of amber suppression dependent expression of GFP over WT tRNA.
# We also tested the utility of a bicistronic tRNA expression construct for its ability to express tRNApyl. Here, the murine tRNA Glu and tRNA Asp were utilized. In each case, multiple repeats of the constructs were generated to increase activity (3×Glu-pyl and 2×Asp-pyl). Here, 3H7 cells were transiently transfected with 1 ug of the reporter construct GFPY40 and 1 ug of the indicated tRNA expression vectors (FIG. 11) and incubated with lys-azide for three days. Data were collected by flow cytometry and mean fluorescence intensities for each sample were plotted. […] The construct consisting of the 7SL WT tRNA (MFI=312) was included as a metric for low efficiency. In addition cell lines containing only the GFPY40 reporter were used as negative controls (MFI=0).
Molecule,"GFP MFI, FIG. 8 [1]","GFP MFI, FIG. 10 [1]","GFP MFI, FIG. 11 [2]","GFP MFI, FIG. 9 ([1]; 1 ug GFPY40 reporter and 1 ug tRNA expression plasmid)"
"7SL WT tRNA: WT tRNApyl downstream of the 7SL promoter 5′ region (nucleic acid, Synthetic sequence 7SL tRNA-WT construct, WT tRNApyl downstream of the 7SL promoter 5′ region) DNA: CCCAGTTGATGACGTCACCATACCACAGCTTCTAGTGCTATTCTGCGCCGGTATCCGACCACCAGGAAACCTGATCATGTAGATCGAATGGACTCTAAATCCGTTCAGCCGGGTTAGATTCCCGGGGTTTCCGGACAAGTGCGGTTTTT","106,075",312,312,
"7SL B tRNA: tRNA-B downstream of the 7SL promoter 5′ region (nucleic acid, Synthetic sequence 7SL tRNA-B construct, tRNA-B downstream of the 7SL promoter 5′ region) DNA: CCCAGTTGATGACGTCACCATACCACAGCTTCTAGTGCTATTCTGCGCCGGTATCCGACCACCAGGAAACCTGATCATGTAGATCGAATGGACTCTAAATCCGTTCAGCCGGGTTCGATTCCCGGGGTTTCCGGACAAGTGCGGTTTTT","265,396",520,520,"167,024"
